Experimental data as given in patent US20180223285A1.

Biological target: human C5a receptor (human) (UniProt P21730)
Assay: cell-based or functional assay

human C5a receptor (human), sequence (P21730 whole entry): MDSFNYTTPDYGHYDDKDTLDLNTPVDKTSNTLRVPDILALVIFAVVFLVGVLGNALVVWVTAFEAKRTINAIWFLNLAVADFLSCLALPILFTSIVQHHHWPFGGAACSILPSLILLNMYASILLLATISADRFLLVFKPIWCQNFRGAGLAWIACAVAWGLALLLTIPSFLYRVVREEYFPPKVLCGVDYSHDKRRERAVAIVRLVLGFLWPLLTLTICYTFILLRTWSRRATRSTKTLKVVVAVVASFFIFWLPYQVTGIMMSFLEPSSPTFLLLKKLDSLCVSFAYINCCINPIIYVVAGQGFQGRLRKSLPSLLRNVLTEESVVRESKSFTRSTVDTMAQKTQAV

| half effective concentration (EC50) of chemotaxis of BA/F3/huC5aR cells | Substance |
| --- | --- |
| 300 pM | mouse C5a (from UniProt P06684 679-755) (ligand) |
| 100 pM | recombinant human C5a (from UniProt P01031 678-751) (ligand) |
